From patent US20240309103A1 (Regeneron, published 2024)

Assays:
mfNPR1-mFc:hANP complex [1] = target: T1, mfNPR1-mFc:hANP complex (monkey; human, UniProt P01160 124-151); experiment: SPR, mAb captured, 37C
T1 construct: also called monkey NPR1 complexed to ANP
Method: (§1) Equilibrium dissociation constant (KD) for different NPR1 reagents binding to purified anti-NPR1 monoclonal antibodies (mAbs) were determined using a real-time surface plasmon resonance based Biacore 4000 biosensor. All binding studies were performed in 10 mM HEPES, 150 mM NaCl, 3 mM EDTA, and 0.05% v/v Surfactant Tween-20, pH 7.4 (HBS-ET) running buffer at 25° C. and 37° C. The Biacore CM5 sensor chip surface was first derivatized by amine coupling with either mouse anti-human Fc specific mAb (GE Healthcare, #BR100839) or goat anti-human Fcy specific polyclonal antibody (Jackson ImmunoResearch Laboratories, #BR-1008-39) to capture anti-NPR1 mAbs.

mfNPR1-mFc [2] = target: T2, mfNPR1-mFc (monkey); experiment: SPR, mAb captured, 37C
T2 construct: also called dimeric monkey NPR1
T2 chain: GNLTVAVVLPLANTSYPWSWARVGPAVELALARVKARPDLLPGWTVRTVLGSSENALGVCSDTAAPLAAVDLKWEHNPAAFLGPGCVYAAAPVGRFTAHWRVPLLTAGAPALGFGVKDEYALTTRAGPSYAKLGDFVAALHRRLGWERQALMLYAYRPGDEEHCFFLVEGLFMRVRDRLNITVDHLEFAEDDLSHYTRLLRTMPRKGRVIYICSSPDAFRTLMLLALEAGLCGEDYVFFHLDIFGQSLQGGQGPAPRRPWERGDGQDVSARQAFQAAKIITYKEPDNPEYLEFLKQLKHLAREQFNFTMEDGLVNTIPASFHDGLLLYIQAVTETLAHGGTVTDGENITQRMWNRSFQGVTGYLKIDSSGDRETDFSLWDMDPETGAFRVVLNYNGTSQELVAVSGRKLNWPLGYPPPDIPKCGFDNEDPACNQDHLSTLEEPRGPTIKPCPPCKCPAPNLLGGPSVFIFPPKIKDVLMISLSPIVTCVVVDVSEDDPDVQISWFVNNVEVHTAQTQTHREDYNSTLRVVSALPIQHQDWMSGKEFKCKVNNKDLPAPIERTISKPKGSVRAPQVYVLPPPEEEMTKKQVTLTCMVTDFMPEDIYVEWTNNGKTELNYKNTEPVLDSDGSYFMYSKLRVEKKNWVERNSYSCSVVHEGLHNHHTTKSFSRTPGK
Method: as §1

hNPR1-mFc:hBNP complex [3] = target: T3, hNPR1-mFc:hBNP complex (human, UniProt P16860 103-134); experiment: SPR, mAb captured, 37C
T3 construct: also called human NPR1 complexed to BNP
Method: as §1

[4] = target: T4, hNPR1-mFc:hANP or hNPR1-hFc:hANP complex (human, UniProt P01160 124-151); experiment: SPR, mAb captured, 37C
T4 construct: also called human NPR1 complexed to ANP
Method: as §1

mfNPR1-mFc:hANP complex [5] = target: T1, mfNPR1-mFc:hANP complex; experiment: SPR, mAb captured, 25C
Method: as §1

mfNPR1-mFc [6] = target: T2, mfNPR1-mFc; experiment: SPR, mAb captured, 25C
Method: as §1

hNPR1-mFc:hBNP complex [7] = target: T3, hNPR1-mFc:hBNP complex; experiment: SPR, mAb captured, 25C
Method: as §1

mfNPR1-mFc:hBNP complex = target: T5, mfNPR1-mFc:hBNP complex (monkey; human, UniProt P16860 103-134); experiment: SPR, mAb captured, 25C
T5 construct: also called monkey NPR1 complexed to BNP
Method: as §1

[8] = target: T4, hNPR1-mFc:hANP or hNPR1-hFc:hANP complex; experiment: SPR, mAb captured, 25C
Method: as §1

B1: mAb25479 (antibody, human IgG4, V domains shown)
VH: QVQLVQSGAEVKKPGASVKVSCKASGYTFTGYYIHWVRQAPGQGLEWMGWINPNSIGTNYAQKFQGRVTLTRDTSISTAYMELSSLRSDDTAVYYCARGGSSSYYYYYYGMDVWGQGTTVTVSS
VL: DIQMTQSPSSLSASVGDRVTITCRASQSIDNYLNWYQQKPGKAPKLLIYVASSLQSGVPSRFSGSGSGTDFTLTISSLQPEDFATYYCQQSYSTPLTFGGGTKVEIK
B1 was tested, and the “100 nM Ag Bound (RU)” value (mfNPR1-mFc:hANP complex [1]) was 138 RU, the Kd (mfNPR1-mFc:hANP complex [1]) was 4 nM and the koff (mfNPR1-mFc:hANP complex [1]) was 0.000219 s⁻¹. For the same binder, the kon (mfNPR1-mFc:hANP complex [1]) was 54700 M⁻¹ s⁻¹, the t½ (mfNPR1-mFc:hANP complex [1]) was 0.88 h and the “100 nM Ag Bound (RU)” value (mfNPR1-mFc [2]) was 89 RU. For the same binder, the Kd (mfNPR1-mFc [2]) was 28.1 nM, the koff (mfNPR1-mFc [2]) was 0.00108 s⁻¹ and the kon (mfNPR1-mFc [2]) was 38200 M⁻¹ s⁻¹. The t½ (mfNPR1-mFc [2]) was 0.178 h, the “100 nM Ag Bound (RU)” value (hNPR1-mFc:hBNP complex [3]) was 85 RU and the Kd (hNPR1-mFc:hBNP complex [3]) was 3.83 nM. For the same binder, the koff (hNPR1-mFc:hBNP complex [3]) was 0.000163 s⁻¹, the kon (hNPR1-mFc:hBNP complex [3]) was 42700 M⁻¹ s⁻¹ and the t½ (hNPR1-mFc:hBNP complex [3]) was 1.18 h. The “100 nM Ag Bound (RU)” value [4] was 84 RU, the Kd [4] was 2.7 nM and the koff [4] was 0.000134 s⁻¹. The kon [4] was 49700 M⁻¹ s⁻¹, the t½ [4] was 1.43 h and the “100 nM Ag Bound (RU)” value (mfNPR1-mFc:hANP complex [5]) was 86 RU. The Kd (mfNPR1-mFc:hANP complex [5]) was 2.44 nM, the koff (mfNPR1-mFc:hANP complex [5]) was 0.000103 s⁻¹ and the kon (mfNPR1-mFc:hANP complex [5]) was 42000 M⁻¹ s⁻¹. The t½ (mfNPR1-mFc:hANP complex [5]) was 1.88 h, the “100 nM Ag Bound (RU)” value (mfNPR1-mFc [6]) was 54 RU and the Kd (mfNPR1-mFc [6]) was 16.2 nM. It also gave a koff (mfNPR1-mFc [6]) of 0.000507 s⁻¹, a kon (mfNPR1-mFc [6]) of 31200 M⁻¹ s⁻¹ and a t½ (mfNPR1-mFc [6]) of 0.38 h. For the same binder, the “100 nM Ag Bound (RU)” value (hNPR1-mFc:hBNP complex [7]) was 50 RU, the Kd (hNPR1-mFc:hBNP complex [7]) was 4.21 nM and the koff (hNPR1-mFc:hBNP complex [7]) was 0.000123 s⁻¹. The kon (hNPR1-mFc:hBNP complex [7]) was 29200 M⁻¹ s⁻¹, the t½ (hNPR1-mFc:hBNP complex [7]) was 1.57 h and the “100 nM Ag Bound (RU)” value (mfNPR1-mFc:hBNP complex) was 86 RU. For the same binder, the Kd (mfNPR1-mFc:hBNP complex) was 2.95 nM, the koff (mfNPR1-mFc:hBNP complex) was 0.000113 s⁻¹ and the kon (mfNPR1-mFc:hBNP complex) was 38100 M⁻¹ s⁻¹. For the same binder, the t½ (mfNPR1-mFc:hBNP complex) was 1.71 h, the “100 nM Ag Bound (RU)” value [8] was 49 RU and the Kd [8] was 3.53 nM. The koff [8] was 0.000109 s⁻¹, the kon [8] was 31000 M⁻¹ s⁻¹ and the t½ [8] was 1.76 h.
